Consider 15 molecules from US20220111022A1 (IMMATICS BIOTECHNOLOGIES, published 2022).

For this experiment, the target named is T1, HLA-A*02:01 (human).
T1 construct: MHC monomers first loaded with a UV-sensitive peptide (not identified) that is cleaved and exchanged for the test peptide; captured on streptavidin-coated plates and detected with anti-β2m; also called peptide-receptive MHC molecules; MHC class I
Kind of experiment: UV-ligand exchange, anti-b2m ELISA; peptide exchange yield grade. An excerpt: Candidate peptides for T cell based therapies according to the present invention were further tested for their MHC binding capacity (affinity). The individual peptide-MHC complexes were produced by UV-ligand exchange, where a UV-sensitive peptide is cleaved upon UV-irradiation and exchanged with the peptide of interest as analyzed. Only peptide candidates that can effectively bind and stabilize the peptide-receptive MHC molecules prevent dissociation of the MHC complexes. To determine the yield of the exchange reaction, an ELISA was performed based on the detection of the light chain (β2m) of stabilized MHC complexes. The assay was performed as generally described in Rodenko et al. (Rodenko et al., 2006).
96 well MAXISorp plates (NUNC) were coated over night with 2 μg/ml streptavidin in PBS at room temperature, washed 4× and blocked for 1 h at 37° C. in 2% BSA containing blocking buffer. Refolded HLA-A*02:01/MLA-001 monomers served as standards, covering the range of 15-500 ng/ml. Peptide-MHC monomers of the UV-exchange reaction were diluted 100-fold in blocking buffer. Samples were incubated for 1 h at 37° C., washed four times, incubated with 2 μg/ml HRP conjugated anti-β2m for 1h at 37° C., washed again and detected with TMB solution that is stopped with […]. Absorption was measured at 450 nm. Candidate peptides that show a high exchange yield (preferably higher than 50%, most preferred higher than 75%) are generally preferred for a generation and production of antibodies or fragments thereof, and/or T cell receptors or fragments thereof, as they show sufficient avidity to the MHC molecules and prevent dissociation of the MHC complexes.

B1: RLLDETVDVTI (peptide)
peptide: RLLDETVDVTI
As to B1, the peptide exchange yield is not below 75%.

B2: KLDASLPAL (peptide)
peptide: KLDASLPAL
On to B2, for which the peptide exchange yield is not below 75%.

B3: YLADFSHAT (peptide)
peptide: YLADFSHAT
As to B3, the peptide exchange yield was not below 75%.

B4: NMYDLTFHV (peptide)
peptide: NMYDLTFHV
As for B4, the peptide exchange yield was not below 75%.

B5: NLLADVSTV (peptide)
peptide: NLLADVSTV
For B5, the peptide exchange yield was 50 to 75%.

B6: SLFIDVTRV (peptide)
peptide: SLFIDVTRV
B6 showed a peptide exchange yield not below 75%.

B7: SLDDSLNEL (peptide)
peptide: SLDDSLNEL
B7 yielded a peptide exchange yield of 50 to 75%.

B8: NLADNTILV (peptide)
peptide: NLADNTILV
Regarding B8, the peptide exchange yield was not below 75%.

B9: NLLDHSSMFL (peptide)
peptide: NLLDHSSMFL
For the molecule B9, the peptide exchange yield is not below 75%.

B10: KLAPEDLADLTAL (peptide)
peptide: KLAPEDLADLTAL
Turning to B10, the peptide exchange yield was not below 75%.

B11: VLDGTEVNL (peptide)
peptide: VLDGTEVNL
The molecule B11 yielded a peptide exchange yield not below 75%.

B12: YLDGTFRLL (peptide)
peptide: YLDGTFRLL
B12: the peptide exchange yield fell in the range of 50 to 75%.

B13: VLKDGTLVI (peptide)
peptide: VLKDGTLVI
Take B13: the peptide exchange yield fell in the range of 20 to 50%.

B14: YLWWVNDQSL (peptide)
peptide: YLWWVNDQSL
In the case of B14, the peptide exchange yield is not below 75%.

B15: KLLDGSQRV (peptide)
peptide: KLLDGSQRV
For the molecule B15, the peptide exchange yield fell in the range of 50 to 75%.
